The source of these data is the domain aggregation screens of Martell et al. (2025).

The series is described as follows: soluble fraction after stress (log2 fold change); higher = more stays soluble; pooled small domains, quantitative proteomics. The conditions noted are these: stress: 50 degC. A digest of the protocol: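 The stress applied to every library was 50°C. These custom libraries of small protein domains were pooled and measured at high throughput with quantitative proteomics as the read-out. Aggregation propensity is expressed as the base-two logarithm of the fold change in how much of each protein remains soluble. The higher the value, the more of that protein stays in solution.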

Turning to “HMFSLDMDRLVRPGFMASGNVTFSDGVTGKWALDQMGRLALETAQKGYQPSPADVQAFQRELQQQLQRQG”, the “soluble fraction (log2)” value was -0.0885.
Then “HMKIKLQATEQQRKTLDELYVQLKKLEPTSKEDLSLLYRLENPHLVSKQEAQGLISIAIGRVGSLAIEQQ”, with -0.27.
With “HMDSTSEILKVIQNIVKKEDPYHPLSDDKISNLLNDLDYQISRRTVAKYRDILTIPSSSKRRKL”, the “soluble fraction (log2)” value was -0.432.
For the sequence “HMQLDLNENEKIIFEILQNNKTMQLSNLKTQTELSNKGWDKAIKSLTKQGLAKVSKIDNELIVEFL”, the “soluble fraction (log2)” value was -0.249.
Then “HMGRTGTVVVSPSLNVRTGPWGEIIGSLYNGNKVEIIGSSGDWYQISFGGKTAYVHSDYVVDGG”, with -0.51; and “HMSKPIYSELLREIRSGDVKELTLIPQRREVLVEYSDGRKATVSILANDQQVLRTAESAGVPLTVK”, with -0.0265.
To “HMEDGRLPPPGTVLRREYKGRAVFVRVLPKGFEFEGEVYRSLSAIAAKVTGSHWNGFRFFGLHE” belongs -1.54; to “HMELPSDEHLDDISHLARIGHKKGLQEKIIQLEQQGLASAEFIQQLKTLTNNFQFEKIIQWVDSEL”, -0.0426; to “HMDSGLEQAKTAALENAELETSQVTFIKAELDYDDGKKVYEIEFVTSAMKYEYQVKADDFSILEMSKETIE”, -0.39.
As for “HMATPRLAIVPQSAAGRRLDAVLAELFPEYSRSRLSAWIKTGDVMVDGAAPRGRDPVRGGEEITLTAVQ”, the “soluble fraction (log2)” value is -0.033.
To “HMSNKYYETILDWFKSQIMSGELKEGDTIPSERELATRFGVSRVPVREALRILEYIGIVSNTADGMTVQKV” belongs -0.879.
“HMDINIETLNYYVGKAKIPLSELRISVKNIDLFLSGEKQPTFNQLSSIAKKLNIPTGLLLLDESIEV”: the “soluble fraction (log2)” value is -2.74.
To “HMDSDELEAFRLITSVNGVGPKLGIAILSEFTAEKLTVFIASGDAKALTAASGVGIKLAQRIVLELKDKVG” belongs -0.199.
Then “HMAPSPEGAAILRESVESVARDQVDRVALTMTARGYTTAEIAAALMVDRSTISRRLYAMRDRYHAQQDNAQ”, with -0.37; and “HMKRTLLLEGRTIPYELTQKPVKNINIRVHADGSVRVSAGPWVSPEAVDAVLRQRSAFLLRALDQFAAQAP”, with -0.996.
With “HMIERLVEFVHTLRHSGVRVSMAEAMDAAEALRHTPITERQIFKTALQSVLVKEHQDIPAFDAAFERFFL”, the “soluble fraction (log2)” value was -1.54.
For the sequence “HMWPTPRTWSALMNELNLYKENHGYANIVDIPSEKIRRMADGIIGEDMAVRYVAFLQSHASS”, the “soluble fraction (log2)” value was -1.6.
To “HMIGVQEFAMTYALTRRETEITQLIIQGKSNAMIAGELFISETTVKKHVSNIFEKTGVSRREELMVRVQAE” belongs -1.44; to “HMNNIIYLIANKLDVGKRLDQFITIRTEFSRQRVINLIEDGYVKLNNKIINLKKYKIKGDEKIEITIPEIR”, -0.542.
As to “HMNMVSGHLQIKKGYYYVVLSYYDNRNKRHVKYVSTGLPEKGNKRKAEAALARVRSEFEPPQE”, the “soluble fraction (log2)” value was -3.55.
In the case of “HMKWGDTPTVEVPNLIGMKKKDLQTQLVDLKLDISGDGEKVIKQSPEAGAKVKEGSKIRIYFG”, the “soluble fraction (log2)” value was -0.0661.
On to “HMETQAGELQDAIRDAIAALPPRTREVFLMSRERNLRYGEIAEALGISVKAVEANMSRALRQLREKLSPFL”, for which the “soluble fraction (log2)” value is -0.454.
To “HMLSDSDTLRDLYLSEQIWNVGDLIRVKGKNDDTHPSWEIIRRGTNYITAIDENYKSHKVWLHDIDI” belongs -1.17.
Turning to “HMKSSTEIIYSDFLREVSNGQISEVTIQGDFVRGLFLSGSSFQTYAPKDSNLINILRDKKVRIKVHPP”, the “soluble fraction (log2)” value is -0.134.
To “HMSTGYEMVREVANQGSFSKAANSLGVSGPAVSKQVKSLEERLGLVLFHRTTRAVSLTQAGRQLVDVLN” belongs 0.0396; to “HMSQDVLLKRSGDQIEVKITEVGEDYLKYKKKGFENGPDFKINTSDVFMVTFANGEKMMFEES”, 0.0105.
Then “HMKQISNTDELEAMIQKIIEDNSQQVEKFRSGNEKLFGWFVGQVMKNTQGAANPKVVNEILKKSLK”, with 0.177; and “HMSGQLTEEQVKQIVTTAVKNSSGSTLTAAEVSRIVSTAVANNLTADQVKTVVNNALAGITTDISTLKA”, with 0.0898.
Then “HMHSFGLHVRNLRKKSNLTLSQLSNASGLSLSAISKIENNQISPSFINLIRLAEGLKMHIADLVTVK”, with -2.13; and “HMEKFTGELSQEEKNVLDALSHEEMHVDIIIKLTKLETSAVSSTLSLLEIKGLIKNIGGQNYIK”, with 0.486.
Consider “HMYEVVPNMRGLTYNQATAALAAAGLKVELSDSIYDEHTQPGTVLDQSPRPNTKVKPNRVVYLTVNAF”, for which the “soluble fraction (log2)” value is -0.739.
On to “HMVPLGDLSKNERRAMELAATNGNVTTRALADDAQVTKRTASTTLRRLAKRGLLEWIGKGPSDPGQFYRIP”, for which the “soluble fraction (log2)” value is -0.123.
In the case of “HMGKTEMPFSTFLTEVDKGNIVSVDIRGSEISGNFRDGKGFKTYSPNYPNLVEKLSAKGVAITAGPR”, the “soluble fraction (log2)” value stood at 0.187.
To “HMAPGIGDSKYFSHIYEMKHIDTIIDNDKGDRLIEHFEIQDTPFIFTKHWTSAFGFSKRQQEIITDYLSYF” belongs 0.0839; to “HMEKYTDDLEIAAEIARLETLMEGNGRVLIRPSGTEPLVRVMIEGNDIEQITKLAEDLAALLNKRF”, -0.747; to “HMRLNIRTKNNYSYYTIIKDYTNLNGKRTTTIFEKLGNQQQVEERFGKVNTIENIKKYIEELNNE”, -1.23.
To “HMGKINEIVANNIAILRKKNRLSLEELGKLSGVSKSMLALIEKGDGNPTLGILWKIANGLGVPFDELTRRP” belongs -0.0928; to “HMSFNISPTKKLILELIMNGTAAVEAIAVKAGISKGMAYNHLRELRSMGYITDEGGYKITDSGRLAV”, -0.414; to “HMGGYLIGDVAQMVGLSRDALRFYEKKGIIRADKKENGYRYYSEDDIYRLMYILYHRKMNTSLEEIGGLMS”, -0.739.
To “HMVKVSVYPNPAVDRITISGEVKAYAVYDATGKVVMKDTDYRGGAIGVSHLPAGIYIVRTDAGAVTVNK” belongs -0.652; to “HMSILTELDIGDKVEVVAGPFKGIQANITRIEPVRKEVTVILLDAPYQLPVTVDADYLKIIQKS”, -0.155; to “HMNSTVKVPNVVGMSVPQAKALLEQNHLLVQGIREVSTDKAPAGIVINQLPYSDAEVKEERHIYLTVSKGK”, ≥ 0.62.
“HMEKKDTYTVKNGDSLWGIARTELGDGGRFREIYTLNADTIEAEAKKRGRSSSSEGHWIYPGSVLRLP”: the “soluble fraction (log2)” value worked out at 0.0469.
To “HMTKSSAYLSAEKLINKKQYSDAIVKLNDALVTDSKNADIYNYLGFSHRKLGKMEDAAFFYNKALE” belongs 0.219; to “HMTTLDTVARQLRDRIREQLDPTGEMSDESLLRTIEEAVYRYSSSGHVLTANEKETVIRRIFHSFR”, 0.0252; to “HMGGKWKAIIIYHLKNGPKRFGELRRALISSTETVLSNQLKQLEQDGLVSRQVFGTKPPLKTVYSLTDFG”, -3.06.
To “HMNKKLEMKIEQLDLSVRLFNSLKRSGIYTVAQIIKLTEEDVMRFRSLGRKSFKELKEKLSEHGLEFE” belongs -2.15; to “HMGEQLALLERARTLLEDETLETEVQKELEMLLEDIEAARAEANATQLEDLFEELADLLFDLE”, -0.0786; to “HMENMTLGQRIQALRKQHGLSQEGLGERLGVSRQAISRWEMDGAVPEVDKLIAMARLFGVSLNQLLGVE”, -0.193.
As to “HMNLDELGNRIREQRIKQRLKQQDIANALMLSAQAVSKWERGENAPDISVLPDLVKILGVSVDWLLTGP”, the “soluble fraction (log2)” value was -0.734.
For the sequence “HMGQDLEAFLLKAVGQLDQGDGVTLDALLKVAVSNGGFVREVAEAKLDDMLDAGTLDEPRFGWFRVGAT”, the “soluble fraction (log2)” value was -0.742.
“HMAGDVVVEVVGKVRDPQVVTLPKGSRVQDALEAAGGVKPGVNTTDQNLARLLVDGEQIRIGLSS”: the “soluble fraction (log2)” value is 0.0918.
Then “HMQDTVKNVFGAFTIFTDKPFAIGDTINVNGLEGTVVDVGMRSTQILGYDRRITSYPNYKITDSSIVNISS”, with -0.0701; and “HMVQPSAAVRAHPVGAFVEQRQGLSDDQILALQKKWNEGIYARIQGTRWFLFSKDTPAVTSLLLVPDLP”, with -0.555; and “HMQISDSSLIAKTVATVILENPEAVSDYLGGKHSVVRFMVGQIMKKTQGKANPKMATEMLETALNDL”, with -1.13.
Then “HMVKEVKVPDVEGLTTEEAIKELKKYGLAYTTKSEENTDIEEGKVIRTEPKKGSTKVKGSTVTIIESSG”, with -0.169.
Then “HMREKLKEYVHLLFAGTVGKEDMEQEILQNTLDRFDDWVARGFSEEDAYRKAVSGIGDIDALLG”, with -0.288.
For “HMGKLYRDRYAPLEPDGARAGDRVFIISLEKEGTLERIDLPRKTATVLLGSSIRSTFPLDDLYQPRG”, the “soluble fraction (log2)” value was 0.0151.
To “HMSAISSARKEKIIEYLTDHGSARSSEIAEYVDLRPSRVRDYLGELVREDIVVAEGANRNRTYRLK” belongs 0.0293; to “HMSVPNVVGRDQVEASSLLESAGFKVSVKQSYSDSVEQGKVISQSPSGSTTVSPGSTVTITVSQ”, 0.122; to “HMAVSVPDVMGLTYEEAYNKITAEGLLVNRLESYTGLVEKGRVISQLPVGGEPAAKGSTVNVNVSL”, 0.252.
Then “HMTKGVKVEIGTEEASVDLYVVMEYGTPIQKAAYDAQESVRKAIETMTNLHVVRVDVHVQGVSF”, with -0.134.
To “HMGLTYEQILTDVQRFVTQNHADTLSNEGNPEEARKLLKDYILQYVQNRSYHVDGQTTEELVDSLYED” belongs -0.195.
“HMSRARSRQTSMLEAVAGLGPARRRALLKQFGGLQGVLRAGIEDLSRAPGIGPALAQAIFEHLHPGA”: the “soluble fraction (log2)” value is -0.466.
To “HMVLVEEYDTKDSASTFKIGYYARYNTKYGTPSKVGSYADNQRSGIWTFYTDSLKTYFKYNYSTGLIL” belongs 0.115.
Then “HMRAPEIEAARSDLDVGQTVQIVRHLHGNQYEVFYRGAQWQAEAVGSSGANDAQTAVITGKNGNILLIQI”, with -0.0658; and “HMSAETREELVGREGVSLTDLRPSGFALFGQEKIDVVSESEFIEEGTSVRIVSVEGSRHIVRAKR”, with 0.0998.
To “HMEKKGTVVIATVKGDIHDIGKNIVKVLLENYGFDVIDLGKDVPPEAVVEAVQQSGARLVGLSALM” belongs -0.594.
